Results as given in PMC6202329.
Blank lines part the entries; values can stand above or below the substance they belong to.

Tests used:
Assay in all cases: complementary split luciferase
Conditions in all cases: n = 5; parent: est. 1.0; read off a plot
[1] = target: ARAF(DDEE/L358M/R362H/APE) fused to Nluc or Cluc (UniProt P10398)
[2] = target: ARAF(DDEE/L358M/R362H) fused to Nluc or Cluc (UniProt P10398)
[3] = target: ARAF(DDEE/L358M/APE) fused to Nluc or Cluc (UniProt P10398)
[4] = target: ARAF(DDEE/L358M) fused to Nluc or Cluc (UniProt P10398)

response [1]: 3.6
Substance: ARAF (wild type) fused to Nluc or Cluc (from UniProt P10398) DGEE; L358M; APE; R362H

response [2]: 1.1
Substance: ARAF (wild type) fused to Nluc or Cluc (from UniProt P10398) DGEE; L358M; R362H

response [3]: 5.4
Substance: ARAF (wild type) fused to Nluc or Cluc (from UniProt P10398) DGEE; L358M; APE

response [4]: 3.3
Substance: ARAF (wild type) fused to Nluc or Cluc (from UniProt P10398) DGEE; L358M
